# Key:
# Assay in all cases: SPR
# integrin αvβ3 = integrin αvβ3 (Homo sapiens, UniProt P06756;P05106 31-992;27-718)
# [1] = target: T1, integrin α5β1 (soluble, SPR) (Homo sapiens, UniProt P08648;P05556 42-995;21-728)
# [2] = target: T1, integrin α5β1 (soluble, SPR); remark: listed apart in the source
# T1 sequence (P08648 42-995, chain 1 of 2): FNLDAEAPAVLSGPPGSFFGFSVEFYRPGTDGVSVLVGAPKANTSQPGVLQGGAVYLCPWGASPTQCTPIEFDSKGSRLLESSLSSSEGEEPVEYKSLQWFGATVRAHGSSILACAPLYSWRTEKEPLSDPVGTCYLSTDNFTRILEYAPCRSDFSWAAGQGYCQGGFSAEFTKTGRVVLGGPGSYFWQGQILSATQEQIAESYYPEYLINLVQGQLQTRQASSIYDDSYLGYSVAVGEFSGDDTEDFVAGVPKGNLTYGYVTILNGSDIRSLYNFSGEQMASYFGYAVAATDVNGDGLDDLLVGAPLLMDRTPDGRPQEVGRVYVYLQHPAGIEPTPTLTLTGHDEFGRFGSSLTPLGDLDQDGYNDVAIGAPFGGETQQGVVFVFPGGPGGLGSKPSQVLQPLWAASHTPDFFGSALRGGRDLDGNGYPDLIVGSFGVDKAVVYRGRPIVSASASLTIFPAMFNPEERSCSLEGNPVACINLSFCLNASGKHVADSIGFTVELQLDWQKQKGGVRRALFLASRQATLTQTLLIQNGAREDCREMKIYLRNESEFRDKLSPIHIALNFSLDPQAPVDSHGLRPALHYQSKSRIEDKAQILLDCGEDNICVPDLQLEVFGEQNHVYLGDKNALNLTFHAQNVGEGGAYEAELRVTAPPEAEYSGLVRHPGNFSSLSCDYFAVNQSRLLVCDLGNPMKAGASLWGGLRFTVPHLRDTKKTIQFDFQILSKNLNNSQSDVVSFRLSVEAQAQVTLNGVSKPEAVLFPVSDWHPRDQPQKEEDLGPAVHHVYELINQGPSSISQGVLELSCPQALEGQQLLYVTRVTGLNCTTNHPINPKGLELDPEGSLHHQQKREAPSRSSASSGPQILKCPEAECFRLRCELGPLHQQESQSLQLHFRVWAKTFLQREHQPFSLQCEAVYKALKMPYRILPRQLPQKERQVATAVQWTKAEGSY
# T1 sequence (P05556 21-728, chain 2 of 2): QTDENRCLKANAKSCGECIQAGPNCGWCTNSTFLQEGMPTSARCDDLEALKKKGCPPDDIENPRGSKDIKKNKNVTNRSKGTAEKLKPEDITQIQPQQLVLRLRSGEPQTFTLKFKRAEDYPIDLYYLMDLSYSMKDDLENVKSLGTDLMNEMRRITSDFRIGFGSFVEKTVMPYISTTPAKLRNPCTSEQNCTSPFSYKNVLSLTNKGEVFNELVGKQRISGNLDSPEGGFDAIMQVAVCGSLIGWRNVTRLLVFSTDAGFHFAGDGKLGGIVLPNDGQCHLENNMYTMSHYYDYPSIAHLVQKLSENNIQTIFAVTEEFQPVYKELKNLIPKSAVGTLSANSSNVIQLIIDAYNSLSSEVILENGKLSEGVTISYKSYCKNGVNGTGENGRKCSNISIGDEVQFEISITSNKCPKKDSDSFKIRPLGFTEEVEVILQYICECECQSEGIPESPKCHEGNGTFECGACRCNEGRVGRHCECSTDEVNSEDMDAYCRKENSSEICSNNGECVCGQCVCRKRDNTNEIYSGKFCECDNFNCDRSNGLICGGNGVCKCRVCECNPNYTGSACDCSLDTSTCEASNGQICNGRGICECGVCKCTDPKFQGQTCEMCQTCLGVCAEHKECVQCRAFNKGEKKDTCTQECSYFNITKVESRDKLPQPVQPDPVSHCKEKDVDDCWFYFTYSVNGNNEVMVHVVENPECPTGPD
# Chain of integrin αvβ3 (P06756 31-992, chain 1 of 2): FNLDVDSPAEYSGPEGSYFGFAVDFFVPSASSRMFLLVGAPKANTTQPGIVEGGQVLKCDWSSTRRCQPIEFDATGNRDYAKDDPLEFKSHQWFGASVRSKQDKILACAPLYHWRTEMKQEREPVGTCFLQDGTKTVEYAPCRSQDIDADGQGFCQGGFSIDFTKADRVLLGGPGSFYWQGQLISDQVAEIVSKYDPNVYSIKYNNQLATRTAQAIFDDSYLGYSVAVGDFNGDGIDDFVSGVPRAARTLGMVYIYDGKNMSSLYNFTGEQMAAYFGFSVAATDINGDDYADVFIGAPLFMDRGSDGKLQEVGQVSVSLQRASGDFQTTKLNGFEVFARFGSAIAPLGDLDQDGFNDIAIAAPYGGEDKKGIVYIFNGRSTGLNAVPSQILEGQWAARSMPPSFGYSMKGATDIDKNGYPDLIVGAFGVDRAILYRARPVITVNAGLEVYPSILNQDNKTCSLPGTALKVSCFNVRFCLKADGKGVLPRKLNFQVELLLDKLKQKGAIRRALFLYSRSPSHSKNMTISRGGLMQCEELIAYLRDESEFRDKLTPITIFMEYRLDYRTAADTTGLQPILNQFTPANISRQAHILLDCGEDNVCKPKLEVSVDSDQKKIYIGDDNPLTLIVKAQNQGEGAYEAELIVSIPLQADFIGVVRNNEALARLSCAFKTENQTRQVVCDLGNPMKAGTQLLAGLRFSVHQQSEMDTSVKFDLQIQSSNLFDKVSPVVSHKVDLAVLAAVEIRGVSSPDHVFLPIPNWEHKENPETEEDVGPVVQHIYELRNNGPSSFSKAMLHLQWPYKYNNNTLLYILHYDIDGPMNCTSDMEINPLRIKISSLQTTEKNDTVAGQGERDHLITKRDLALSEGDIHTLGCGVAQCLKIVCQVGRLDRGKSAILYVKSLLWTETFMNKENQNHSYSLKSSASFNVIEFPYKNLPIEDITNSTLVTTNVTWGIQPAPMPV
# Chain of integrin αvβ3 (P05106 27-718, chain 2 of 2): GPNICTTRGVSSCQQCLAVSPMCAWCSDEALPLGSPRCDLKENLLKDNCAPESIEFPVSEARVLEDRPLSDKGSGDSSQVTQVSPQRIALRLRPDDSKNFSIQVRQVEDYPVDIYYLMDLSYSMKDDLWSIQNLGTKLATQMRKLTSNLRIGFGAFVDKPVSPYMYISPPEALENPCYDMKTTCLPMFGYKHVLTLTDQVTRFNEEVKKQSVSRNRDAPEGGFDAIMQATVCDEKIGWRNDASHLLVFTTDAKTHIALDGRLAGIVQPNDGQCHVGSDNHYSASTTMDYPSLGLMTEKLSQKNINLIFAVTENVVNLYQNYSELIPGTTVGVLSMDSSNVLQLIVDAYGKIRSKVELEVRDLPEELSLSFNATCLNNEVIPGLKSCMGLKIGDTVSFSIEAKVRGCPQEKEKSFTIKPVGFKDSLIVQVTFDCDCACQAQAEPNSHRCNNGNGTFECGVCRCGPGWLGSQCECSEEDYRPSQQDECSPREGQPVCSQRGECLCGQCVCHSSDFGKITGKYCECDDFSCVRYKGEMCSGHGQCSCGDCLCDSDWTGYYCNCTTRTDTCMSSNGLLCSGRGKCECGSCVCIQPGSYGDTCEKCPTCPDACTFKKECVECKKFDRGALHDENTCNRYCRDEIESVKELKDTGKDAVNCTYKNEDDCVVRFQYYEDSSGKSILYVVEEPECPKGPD
binder,measurement,setting,value
"aptamer H02-2'F (XNA, 2'-fluoro pyrimidines) RNA: GGUUACCAGCCUUCACUGCGGACGGACAGAGAGUGCAACCUGCCGUGCCGCACCACGGUCGGUCACAC",binding result,integrin αvβ3,no binding
same,Kd,[1],72 ± 11 nM
"aptamer B03 (biotinylated, SPR) (structured_RNA, 2'-fluoro pyrimidines? (not stated for B03)) RNA: GGUUACCAGCCUUCACUGCGCCCAGUCACUGCACGAAUCAGUGAUGGCCGCACCACGGUCGGUCACAC",binding result,[2],no binding

# Reference: publication PMC6586995
